Laboratory results published in publication PMC6309500 (Molecular cell, 2018).

Biological target: FLAG-tagged PACS-2 (UniProt Q86VP3 1-889)
Assay: co-IP

FLAG-tagged PACS-2, sequence (Q86VP3 whole entry): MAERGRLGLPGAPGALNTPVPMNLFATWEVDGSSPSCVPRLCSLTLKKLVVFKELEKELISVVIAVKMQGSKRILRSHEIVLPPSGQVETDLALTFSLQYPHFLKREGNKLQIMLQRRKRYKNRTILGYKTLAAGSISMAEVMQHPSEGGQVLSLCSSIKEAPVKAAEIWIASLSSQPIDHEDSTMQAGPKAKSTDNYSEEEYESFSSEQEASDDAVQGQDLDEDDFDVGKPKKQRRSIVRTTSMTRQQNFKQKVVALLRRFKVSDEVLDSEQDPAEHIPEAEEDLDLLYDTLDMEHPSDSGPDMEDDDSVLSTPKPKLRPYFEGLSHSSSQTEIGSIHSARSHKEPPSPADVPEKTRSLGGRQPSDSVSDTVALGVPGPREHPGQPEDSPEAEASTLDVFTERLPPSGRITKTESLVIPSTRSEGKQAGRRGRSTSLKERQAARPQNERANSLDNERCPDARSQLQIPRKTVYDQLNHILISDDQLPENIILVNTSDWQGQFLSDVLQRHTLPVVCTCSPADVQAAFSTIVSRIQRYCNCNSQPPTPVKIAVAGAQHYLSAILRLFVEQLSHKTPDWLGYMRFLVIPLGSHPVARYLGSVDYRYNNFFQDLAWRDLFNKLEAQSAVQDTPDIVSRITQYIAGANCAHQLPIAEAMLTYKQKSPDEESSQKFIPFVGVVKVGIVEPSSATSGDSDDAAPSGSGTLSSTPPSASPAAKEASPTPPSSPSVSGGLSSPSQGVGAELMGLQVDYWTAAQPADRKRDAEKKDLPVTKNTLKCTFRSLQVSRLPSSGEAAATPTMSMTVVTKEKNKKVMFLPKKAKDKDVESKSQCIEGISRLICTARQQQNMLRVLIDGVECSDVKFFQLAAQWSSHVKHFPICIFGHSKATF

B1: V5-tagged mouse SIRT1 (enzyme, UniProt Q923E4 1-737, looked up)
chain: MADEVALALQAAGSPSAAAAMEAASQPADEPLRKRPRRDGPGLGRSPGEPSAAVAPAAAGCEAASAAAPAALWREAAGAAASAEREAPATAVAGDGDNGSGLRREPRAADDFDDDEGEEEDEAAAAAAAAAIGYRDNLLLTDGLLTNGFHSCESDDDDRTSHASSSDWTPRPRIGPYTFVQQHLMIGTDPRTILKDLLPETIPPPELDDMTLWQIVINILSEPPKRKKRKDINTIEDAVKLLQECKKIIVLTGAGVSVSCGIPDFRSRDGIYARLAVDFPDLPDPQAMFDIEYFRKDPRPFFKFAKEIYPGQFQPSLCHKFIALSDKEGKLLRNYTQNIDTLEQVAGIQRILQCHGSFATASCLICKYKVDCEAVRGDIFNQVVPRCPRCPADEPLAIMKPEIVFFGENLPEQFHRAMKYDKDEVDLLIVIGSSLKVRPVALIPSSIPHEVPQILINREPLPHLHFDVELLGDCDVIINELCHRLGGEYAKLCCNPVKLSEITEKPPRPQKELVHLSELPPTPLHISEDSSSPERTVPQDSSVIATLVDQATNNNVNDLEVSESSCVEEKPQEVQTSRNVENINVENPDFKAVGSSTADKNERTSVAETVRKCWPNRLAKEQISKRLEGNQYLFVPPNRYIFHGAEVYSDSEDDVLSSSSCGSNSDSGTCQSPSLEEPLEDESEIEEFYNGLEDDTERPECAGGSGFGADGGDQEVVNEAIATRQELTDVNYPSDKS
**Q.** B1 was tested. Which “fold enhancement of the co-IP in the presence of DBC1” value did it give?
**A.** > 8 fold

B2: V5-tagged human SIRT1 (enzyme, UniProt Q96EB6 1-747, looked up)
chain: MADEAALALQPGGSPSAAGADREAASSPAGEPLRKRPRRDGPGLERSPGEPGGAAPEREVPAAARGCPGAAAAALWREAEAEAAAAGGEQEAQATAAAGEGDNGPGLQGPSREPPLADNLYDEDDDDEGEEEEEAAAAAIGYRDNLLFGDEIITNGFHSCESDEEDRASHASSSDWTPRPRIGPYTFVQQHLMIGTDPRTILKDLLPETIPPPELDDMTLWQIVINILSEPPKRKKRKDINTIEDAVKLLQECKKIIVLTGAGVSVSCGIPDFRSRDGIYARLAVDFPDLPDPQAMFDIEYFRKDPRPFFKFAKEIYPGQFQPSLCHKFIALSDKEGKLLRNYTQNIDTLEQVAGIQRIIQCHGSFATASCLICKYKVDCEAVRGDIFNQVVPRCPRCPADEPLAIMKPEIVFFGENLPEQFHRAMKYDKDEVDLLIVIGSSLKVRPVALIPSSIPHEVPQILINREPLPHLHFDVELLGDCDVIINELCHRLGGEYAKLCCNPVKLSEITEKPPRTQKELAYLSELPPTPLHVSEDSSSPERTSPPDSSVIVTLLDQAAKSNDDLDVSESKGCMEEKPQEVQTSRNVESIAEQMENPDLKNVGSSTGEKNERTSVAGTVRKCWPNRVAKEQISRRLDGNQYLFLPPNRYIFHGAEVYSDSEDDVLSSSSCGSNSDSGTCQSPSLEEPMEDESEIEEFYNGLEDEPDVPERAGGAGFGTDGDDQEAINEAISVKQEVTDMNYPSNKS
**Q.** Which “fold enhancement of the co-IP in the presence of DBC1” value does the source give for B2 here?
**A.** > 8 fold
